The source of these data is US20230265185A1 (NATIONAL RESEARCH COUNCIL OF CANADA, published 2023).

One may read the Kd as a measure of binding affinity in units of concentration. Broadly, the koff is a measure of how fast the partners let go of each other. As a reminder, the kon is the second-order rate constant of association.

For the experiment, the target named is T1, recombinant extracellular domain of the predominant human CD22-beta isoform (CD22-ECD) (human, UniProt P20273 20-687, CHO-expressed glycoprotein. Capture on an SA chip implies biotinylation, but the patent does not state it for SPR.).
T1 construct: Expressed in CHO-3E7 cells, IMAC and SEC purified, monomeric fraction; Results say it was immobilized onto a CM5 dextran chip; also called human CD22-ECD; hCD22 ecto-domain
T1 sequence: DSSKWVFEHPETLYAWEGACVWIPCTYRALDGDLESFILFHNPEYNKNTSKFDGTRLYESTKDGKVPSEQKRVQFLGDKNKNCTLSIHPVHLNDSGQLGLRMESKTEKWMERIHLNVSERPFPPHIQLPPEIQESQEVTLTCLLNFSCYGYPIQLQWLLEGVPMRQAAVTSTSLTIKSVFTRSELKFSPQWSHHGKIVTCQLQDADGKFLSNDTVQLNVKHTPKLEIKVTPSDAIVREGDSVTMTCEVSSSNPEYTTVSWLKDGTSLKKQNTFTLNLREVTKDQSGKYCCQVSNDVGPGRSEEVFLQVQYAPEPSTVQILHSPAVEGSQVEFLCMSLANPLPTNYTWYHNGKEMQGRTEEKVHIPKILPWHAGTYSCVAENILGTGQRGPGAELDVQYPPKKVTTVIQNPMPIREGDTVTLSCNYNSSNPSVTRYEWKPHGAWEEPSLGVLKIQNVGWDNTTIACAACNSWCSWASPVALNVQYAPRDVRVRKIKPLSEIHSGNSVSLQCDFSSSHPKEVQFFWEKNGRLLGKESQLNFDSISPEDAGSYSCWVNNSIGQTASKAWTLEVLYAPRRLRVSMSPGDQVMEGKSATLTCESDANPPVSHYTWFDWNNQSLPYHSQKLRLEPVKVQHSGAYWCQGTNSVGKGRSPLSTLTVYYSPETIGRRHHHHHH
Nature of the experiment: SPR, Biacore T200, VHH over immobilized CD22-ECD. Here is the method: For surface Plasmon resonance, 21 selected VHHs were passed though size exclusion columns, superdex 75 (GE Healthcare), respectively, in 10 mM HEPES, pH 7.4, containing 150 mM NaCl, 3 mM EDTA, monomeric sdAb fractions were collected and protein concentrations were determined by measuring absorbance at 280 nm (A280). Analysis were performed with Biacore T200 instrument (GE Healthcare). All measurements were carried out at 25° C. in 10 mM HEPES, pH 7.4, containing 150 mM NaCl, 3 mM EDTA and 0.005% surfactant P20 (GE Healthcare). Approximately 1919 RUs of the recombinant monomeric CD22-ECD (obtained after SEC purification of the CD22-ECD) were captured on SA sensor chip (GE Healthcare) at a flow rate of 5 uL/min. Various concentration of the monomeric VHHs were injected over CD22-ECD surface, respectively using an SA surface as a reference at a flow rate of 40 µL/min. Surfaces were generated by washing with running buffer. Data were analysed with BIAevaluation 4.1 software.
The monomeric fraction of all 21 VHHs were used for SPR experiment where the human CD22-ECD was immobilized onto the CM5 dextran chip and various VHH concentration (0.6-400 nM) were passed over the sensor chip. […] All of the data collected fit a 1:1 binding model.
For orientation: In SPR one partner is held on a chip, and binding of the other changes the refractive index at the surface.

B1: hCD221ug-93 (VHH)
VHH: QVKLEESGGGLVQAGGSLRLSCAASGSTFSSSVMNWYRQAPGKQRELVAVITSSGSTHYADSVKGRFTISRDNAKNTVNLQMNSLKPEDTAVYYCNAQYGRRSDWGQGTQVTVSS
modifications: single biotin at the VHH C-terminal (biotinylation signal sequence)
notes: llama VHH, expressed in E. coli TG1, IMAC purified, monomeric SEC fraction; also called VHH # 11
Turning to B1, the dissociation constant Kd worked out at 7.7 nM, the off-rate (koff) stood at 0.0105 s⁻¹ and the association rate constant (kon) came to 1.36e+06 M⁻¹ s⁻¹.

B2: hCD22pas-33 (VHH)
VHH: QVKLEESGGGLVQPGGSLRLSCTVSGFTLDSYVMGWFRQAPGKEREAVSCISSSDGVTYYADSVKGRFTISRDNAKNTYLQMNSLKPEDTAIYYCAVDKPFYDGGYLYTCPVDFDSWGQGIQVTVSS
modifications: single biotin at the VHH C-terminal (biotinylation signal sequence)
notes: llama VHH, expressed in E. coli TG1, IMAC purified, monomeric SEC fraction; also called VHH # 7
Regarding B2, the Kd was determined as 2.6 nM, the off-rate constant (koff) worked out at 0.00014 s⁻¹ and the kon is 54000 M⁻¹ s⁻¹.

B3: hCD22pas-79 (VHH)
VHH: QVKLEESGGGLVQPGGSLRLSCTVSGRTSSVYGMAWFRQTPGKEREFVAAMSWSGGPTYFADSVKGRFGSSRDNAKNTVYLQMNGLRPEDTAVYYCAVRIRRTLLEPLTKETLYDYWGQGTQVTVSS
modifications: single biotin at the VHH C-terminal (biotinylation signal sequence)
notes: llama VHH, expressed in E. coli TG1, IMAC purified, monomeric SEC fraction; also called VHH # 18
As for B3, the Kd turned out to be 7.72 nM, the dissociation rate constant (koff) was 0.00397 s⁻¹ and the on-rate (kon) came to 514000 M⁻¹ s⁻¹.

B4: hCD221ug-6 (VHH)
VHH: QVQLVESGGGVVRPGDSLRLSCTVSGFTLDYYVMGWFRQAPGKEREVVSCISSSDGVTYYADSVKGRFTISRDNAKNTVYLQMNSLKPEDTAIYYCAVDKPFYDGGYYYTCPVDFDSWGQGTQVTVSS
modifications: single biotin at the VHH C-terminal (biotinylation signal sequence)
notes: llama VHH, expressed in E. coli TG1, IMAC purified, monomeric SEC fraction; also called VHH # 5
For B4, the dissociation constant Kd turned out to be 2.41 nM, the koff was determined as 0.000129 s⁻¹ and the on-rate constant (kon) was found to be 53600 M⁻¹ s⁻¹.

B5: hCD22100ng-2 (VHH)
VHH: QVKLEESGGGLVQPGGSLRLSCTVSGVTFDYYVMGWFRQAPGKEREVVSCMRNSDGVTYYADSVKGRFTISRDNAKNTVYLQMNSLKPDDTAIYYCAVDKPFYDGGNYYTCPVDFDSWGQGTQVTVSS
modifications: single biotin at the VHH C-terminal (biotinylation signal sequence)
notes: llama VHH, expressed in E. coli TG1, IMAC purified, monomeric SEC fraction; also called VHH # 2
Take B5: the dissociation constant (Kd) turned out to be 2.78 nM, the off-rate constant (koff) came to 0.00013 s⁻¹ and the on-rate (kon) stood at 46800 M⁻¹ s⁻¹.

B6: hCD22pas-10 (VHH)
VHH: QVQLVESGGGLVQPGDSLRLSCTVSGFTSDYYAMGWFRQAPGKEREAVSCISSSDGVTYYADSVRGRFTISRDNAKNTVYLEMNSLKPEDTAIYYCAVDKPFYDGGYLYTCPVDFDSWGQGTQVTVSS
modifications: single biotin at the VHH C-terminal (biotinylation signal sequence)
notes: llama VHH, expressed in E. coli TG1, IMAC purified, monomeric SEC fraction; also called VHH # 6
As to B6, the Kd amounted to 19 nM, the koff was 0.00289 s⁻¹ and the on-rate (kon) came out at 152000 M⁻¹ s⁻¹.

B7: hCD22100ng-66 (VHH)
VHH: QVQLVESGGGLVQPGGSLRLSCTVSGFSLDYYVMGWFRQAPGKEREVVSCISSSDGATYYPDSVKGRFTISRDNAKKTVYLQMNALKPEDTAIYYCAVDKPFYDGGSYYTCPVDFGSWGQGTQVTVSS
modifications: single biotin at the VHH C-terminal (biotinylation signal sequence)
notes: llama VHH, expressed in E. coli TG1, IMAC purified, monomeric SEC fraction; also called VHH # 4
On to B7, for which the dissociation constant Kd came out at 0.924 nM, the dissociation rate constant (koff) was determined as 0.000134 s⁻¹ and the association rate constant (kon) turned out to be 145000 M⁻¹ s⁻¹.

B8: hCD221ug-14 (VHH)
VHH: QVKLEESGGGLVQAGGSLRLSCAVSGRIFRSYVLGWFRQAPGKERELVARIGWSDTYYADSVKGRFTISRDNAKNTVDLQMNSLKPEDTAVYYCAANSPPYGPQRDEFDYWGQGTQVTVSS
modifications: single biotin at the VHH C-terminal (biotinylation signal sequence)
notes: llama VHH, expressed in E. coli TG1, IMAC purified, monomeric SEC fraction; also called VHH # 16; 9-hCD22 1ug-14
B8: the dissociation constant (Kd) amounted to 0.00684 nM, the koff is 2.1e-05 s⁻¹ and the on-rate (kon) stood at 3.07e+06 M⁻¹ s⁻¹.

B9: hCD221ug-74 (VHH)
VHH: QVKLEESGGGLVQAGGSLRLSCAGSGFTFDDYAMGWFRQAPGKEREVVSCMGSSDGATYYADSVKGRFTISRDNAKNTVYLQMNSLKPEDTAIYYCAVDKPFYDGGYRYTCPVDFGSWGQGTQVTVSS
modifications: single biotin at the VHH C-terminal (biotinylation signal sequence)
notes: llama VHH, expressed in E. coli TG1, IMAC purified, monomeric SEC fraction; also called VHH # 3
On to B9, for which the Kd is 7.08 nM, the koff turned out to be 0.000655 s⁻¹ and the kon was found to be 92500 M⁻¹ s⁻¹.

B10: hCD22pas-16 (VHH)
VHH: QVQLVESGGGLVQAGGSLRLSCAASGSTFSLKAMAWYRQAPGKQRERVGVINSDGSYTTDAASVQGRFTISRDNAKNTVYLQMNSLKPEDTAVYYCNTMPPWPWGQGTQVTVSS
modifications: single biotin at the VHH C-terminal (biotinylation signal sequence)
notes: llama VHH, expressed in E. coli TG1, IMAC purified, monomeric SEC fraction; also called VHH # 20
For the molecule B10, the dissociation constant Kd was 2.75 nM, the off-rate constant (koff) stood at 0.001 s⁻¹ and the kon was 365000 M⁻¹ s⁻¹.

B11: hCD221ug-77 (VHH)
VHH: QVKLEESGGGLVQPGGSLRLSCADSGSIFRIAVMNWYRQAPGKERELVAVITSGGETHYAASVKGRFTISRDNAKNTMYLQMNSLKPEDTAVYYCNAKWGQYEYWGQGTQVTVSS
modifications: single biotin at the VHH C-terminal (biotinylation signal sequence)
notes: llama VHH, expressed in E. coli TG1, IMAC purified, monomeric SEC fraction; also called VHH # 8
On to B11, for which the dissociation constant Kd was 4.77 nM, the koff was 0.00262 s⁻¹ and the kon is 550000 M⁻¹ s⁻¹.

B12: hCD221ug-75 (VHH)
VHH: QVKLEESGGGLVQPGGSLRLSCAGSGSIFRIAVMNWYRQAPGKERELVAVITSGGDTHYAASVKGRFTISRDNAKNTMYLQINSLKPEDTAVYYCNAKYGRDEYWGQGAQVTVSS
modifications: single biotin at the VHH C-terminal (biotinylation signal sequence)
notes: llama VHH, expressed in E. coli TG1, IMAC purified, monomeric SEC fraction; also called VHH # 10
As for B12, the Kd was 0.865 nM, the koff was determined as 0.00121 s⁻¹ and the kon came to 1.4e+06 M⁻¹ s⁻¹.

B13: hCD221ug-87 (VHH)
VHH: QVQLVESGGGLVQPGGSLRLSCADSGSIFRIAVMNWYRQAPGKERELVAVITSGGETHYAASVKGRFTISRDNAKNTMYLQMNSLKPEDTAVYYCNAKWGRDEYWGQGTQVTVSS
modifications: single biotin at the VHH C-terminal (biotinylation signal sequence)
notes: llama VHH, expressed in E. coli TG1, IMAC purified, monomeric SEC fraction; also called VHH # 9
With B13, the Kd was found to be 0.647 nM, the off-rate (koff) came to 0.000797 s⁻¹ and the on-rate (kon) came out at 1.23e+06 M⁻¹ s⁻¹.
